The binders below were run against T1, HLA-A*02:01 (human) (assay: UV peptide exchange ELISA).
T1 construct: monomers captured on streptavidin plates; also called MHC class I
Summary of the method: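 Read-out is an ELISA on the UV-exchange reaction: monomers, diluted 100-fold, are captured on streptavidin and the β2m light chain is detected with 2 μg/ml HRP antibody and TMB at 450 nm.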
Binder ALFTFSPLTV has a peptide exchange yield of 50 to 75%. Work on ALYIGDGYVIHLA yielded a peptide exchange yield of 50 to 75%. Binder ALLQEGEVYSA has a peptide exchange yield of 50 to 75%. For SIANFSEFYV, the peptide exchange yield was ≥ 75%. In the case of VLPDPEVLEAV, the peptide exchange yield is reported as 50 to 75%. VLADIELAQA gave a peptide exchange yield of 50 to 75%. For QLLDVVLTI, the peptide exchange yield was 20 to 50%. In the case of VLLEIEDLQV, the peptide exchange yield is reported as ≥ 75%. FLNEFFLNV was tested, and the peptide exchange yield was 50 to 75%. MTLGQIYYL was tested, and the peptide exchange yield was 50 to 75%. Binder VLDRESPNV has a peptide exchange yield of 50 to 75%. YLLETSGNL was tested, and the peptide exchange yield was 50 to 75%. QLLHVGVTV was tested, and the peptide exchange yield was 50 to 75%. Binder FLVEDLVDSL has a peptide exchange yield of 50 to 75%. ALWGGTQPLL gave a peptide exchange yield of 20 to 50%. Binder ILLSQTTGV has a peptide exchange yield of 50 to 75%. RMIEYFIDV showed a peptide exchange yield of 50 to 75%. ILRESTEEL showed a peptide exchange yield of 50 to 75%. With VLDELDMEL the peptide exchange yield was 20 to 50%. With FMVDNEAIYDI the peptide exchange yield was ≥ 75%. NLINEINGV showed a peptide exchange yield of 50 to 75%. YLFPGIPEL was tested, and the peptide exchange yield was 50 to 75%. With FMEGAIIYV the peptide exchange yield was 50 to 75%. Work on VMITKLVEV yielded a peptide exchange yield of 50 to 75%. Binder YLVYILNEL has a peptide exchange yield of 20 to 50%. LLADVVPTT gave a peptide exchange yield of 50 to 75%. ALLGQTFSL showed a peptide exchange yield of 50 to 75%. LLPPLESLATV gave a peptide exchange yield of 20 to 50%. For AILPQLFMV, the peptide exchange yield was ≥ 75%. In the case of ALVNVQIPL, the peptide exchange yield is reported as 50 to 75%.

From US20170037110A1 (IMMATICS BIOTECHNOLOGIES, published 2017)
